According to patent publication US20040005636A1, “Method for obtaining the binding affinities of a peptide library to a protein” (priority 2002, published 2004):
Ends that are not written are not given here. Peptide text beside a SMILES is read from it. * marks the point of attachment. Fluorescein(5-NHCOCH2) = O=C(C*)Nc1ccc2c(c1)C(=O)OC21c2ccc(O)cc2Oc2cc(O)ccc21

T1: hERα-LBD (ligand binding domain of estrogen receptor α) (human, UniProt P03372 297-554)
T1 construct: Assayed with estradiol, diethylstilbestrol, genistein or tamoxifen present; the ligand is named under assay in each row
T1 sequence (looked up): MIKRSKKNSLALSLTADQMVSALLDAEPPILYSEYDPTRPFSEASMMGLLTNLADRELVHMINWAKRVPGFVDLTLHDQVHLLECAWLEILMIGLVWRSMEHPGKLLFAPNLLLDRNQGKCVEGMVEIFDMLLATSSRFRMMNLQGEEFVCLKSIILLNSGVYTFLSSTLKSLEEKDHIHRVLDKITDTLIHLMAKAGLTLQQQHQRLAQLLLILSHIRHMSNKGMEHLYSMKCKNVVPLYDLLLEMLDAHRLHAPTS

T2: hERα-LBD (Homo sapiens, UniProt P03372)
T2 construct: The receptor ERα-LBD or TRβ-LBD, expressed using reported protocols; made in house
T2 sequence (P03372 311-547 limits assumed): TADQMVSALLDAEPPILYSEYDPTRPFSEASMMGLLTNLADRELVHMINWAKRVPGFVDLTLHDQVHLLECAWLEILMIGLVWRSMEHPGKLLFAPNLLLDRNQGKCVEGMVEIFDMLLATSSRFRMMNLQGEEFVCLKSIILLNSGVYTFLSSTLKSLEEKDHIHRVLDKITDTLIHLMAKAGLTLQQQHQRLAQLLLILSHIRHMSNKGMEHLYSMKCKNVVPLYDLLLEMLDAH

T3: hTRβ-LBD (ligand binding domain of thyroid hormone receptor β) (human, UniProt P10828 202-461)
T3 construct: Assayed with the small-molecule ligand T3 present
T3 sequence (looked up): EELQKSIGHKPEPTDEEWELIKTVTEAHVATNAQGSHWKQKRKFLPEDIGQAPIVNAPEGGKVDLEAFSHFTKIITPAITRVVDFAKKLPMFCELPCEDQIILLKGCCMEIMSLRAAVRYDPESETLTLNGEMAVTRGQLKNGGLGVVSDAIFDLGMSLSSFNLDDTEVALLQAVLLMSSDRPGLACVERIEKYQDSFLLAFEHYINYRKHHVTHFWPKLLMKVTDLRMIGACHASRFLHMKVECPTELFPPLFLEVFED


Target: T1, hERα-LBD (ligand binding domain of …)
Experiment: fluorescence polarization, labelled peptide 10 nM, hERα-LBD titrated, diethylstilbestrol present
Conditions: not given
Procedure: (§1) The concentration of protein varied between 0.001-20 μM in the following way. In 96 well plates, hTRβ-LBD or hERα-LBD was serially diluted from 40 μM to 0.002 μM in binding buffer (50 mM Sodium Phosphate, 150 mM NaCl, pH 7.2, 1 mM DTT, 1 mM EDTA, 0.01% NP40, 10% glycerol), containing 200 μM ligand (T₃, for TRβ, or estradiol, diethylstilbestrol, genistein or tamoxifen for ERα).
(§2) Subsequently 10 μL of diluted protein was added to 10 μL of fluorescent coregulator peptide (20 nM) in 384-well plates yielding final protein concentrations of […] and 10 nM fluorescent peptide concentration. The samples were allowed to equilibriate for 30 minutes. Binding was then measured using fluorescence polarization (excitation λ at 485 nm, emission λ at 530 nm) on an Analyst AD (available from Molecular Devices).
(§3) All experiments were carried out in quadruplicate, with each iteration containing the positive and negative controls, and 10-12 dose points. The data were then fit using Klotz plots to determine IC₅₀ values using nonlinear regression analysis that fits the data to a modification of the model of Heyduk and Lee. (Heyduk et al., Proc. Natl. Acad. Sci., (1990), 1774; Heyduk et al., Nature, (1993), 364, 6437; Heyduk et al., Methods Enzymol., 274, 492. Further analysis was conducted using Hill and Scatchard plots to confirm number and homogeneity of binding sites as discussed hereinbelow.

Molecule	Kd [µM]
C(5‑iodoacetamidofluorescein)YSQTSHKLVQLLTTTAEQQ [SRC1-1 coregulator peptide]	0.853
C(5‑iodoacetamidofluorescein)ESKDHQLLRYLLDKDEKDL [SRC1-3 coregulator peptide]	1.46
C(5‑iodoacetamidofluorescein)LTARHKILHRLLQEGSPSD [SRC1-2 coregulator peptide]	0.302

The next lines start with the values.

Kd [µM]	Molecule
0.896	C(5‑iodoacetamidofluorescein)DSKGQTKLLQLLTTKSDQM [SRC2-1 coregulator peptide]
0.277	CLKEKHKILHRLLQDSSSPV (5-iodoacetamidofluorescein coupled to the amino terminal cysteine, also called SRC2-2 peptide) [SRC2-2 coregulator peptide]
0.415	C(5‑iodoacetamidofluorescein)LQEKHRILHKLLQNGNSPA [SRC3-2 coregulator peptide]

Target: T2, hERα-LBD
Experiment: Fluorescence polarization assay of coregulator peptide binding to ERα-LBD
Conditions: ERα-LBD in the presence of estradiol; read-out: Dissociation constant for ERα, Estradiol
Procedure: The peptide library synthesized in Example 1 was assayed with ERα or TRβ receptor. Library members were kept at a constant concentration of 10 nM. A ligand was optionally added to the nuclear hormone receptor.
as §1, with “The receptor ERα-LBD or TRβ-LBD, expressed using reported protocols (for TR see, e.g., Darimont et al., Genes Dev., 12(21):3343-56, (1998); and for ER, see, e.g., Shiau et al., Cell, (1998), 95(7):927-937), was used. The” for “The”, “(T3,” for “(T₃,”
as §2
as §3, with “IC50” for “IC₅₀”
FIG. 6 illustrates direct binding of SRC2-2 to ERα-LBD in the presence of the ligands estradiol, diethylstilbestrol and genistein. […] Measured dissociation constants for binding of members of the SRC peptide library to ERα, in the presence of 3 different ligands, are illustrated in Table 4 wherein the binding units are μM. Table 5 illustrates a comparison of binding constants (μM) for SRC peptides with the TRβ receptor in the presence of thyroid hormone T3, and the ERα receptor in the presence of estradiol.

Kd [µM]	Molecule
0.927	CSCC[C@H](NC(=O)[C@H](CCC(N)=O)NC(=O)[C@H](CC(=O)O)NC(=O)[C@H](CO)NC(=O)[C@H](CCCCN)NC(=O)[C@@H](NC(=O)[C@@H](NC(=O)[C@H](CC(C)C)NC(=O)[C@H](CC(C)C)NC(=O)[C@H](CCC(N)=O)NC(=O)[C@H](CC(C)C)NC(=O)[C@H](CC(C)C)NC(=O)[C@H](CCCCN)NC(=O)[C@@H](NC(=O)[C@H](CCC(N)=O)NC(=O)CNC(=O)[C@H](CCCCN)NC(=O)[C@H](CO)NC(=O)[C@H](CC(=O)O)NC(=O)[C@@H](N)CSCC(=O)Nc1ccc2c(c1)C(=O)OC21c2ccc(O)cc2Oc2cc(O)ccc21)[C@@H](C)O)[C@@H](C)O)[C@@H](C)O)C(=O)O [SRC2-1] (H-C(Fluorescein(5-NHCOCH2))DSKGQTKLLQLLTTKSDQM-OH)
2.54	CC(C)C[C@H](NC(=O)[C@H](CC(=O)O)NC(=O)[C@H](CCCCN)NC(=O)[C@H](CCC(=O)O)NC(=O)[C@H](CC(=O)O)NC(=O)[C@H](CCCCN)NC(=O)[C@H](CC(=O)O)NC(=O)[C@H](CC(C)C)NC(=O)[C@H](CC(C)C)NC(=O)[C@H](Cc1ccc(O)cc1)NC(=O)[C@H](CCCNC(=N)N)NC(=O)[C@H](CC(C)C)NC(=O)[C@H](CC(C)C)NC(=O)[C@H](CCC(N)=O)NC(=O)[C@H](Cc1c[nH]cn1)NC(=O)[C@H](CC(=O)O)NC(=O)[C@H](CCCCN)NC(=O)[C@H](CO)NC(=O)[C@H](CCC(=O)O)NC(=O)[C@@H](N)CSCC(=O)Nc1ccc2c(c1)C(=O)OC21c2ccc(O)cc2Oc2cc(O)ccc21)C(=O)O [SRC1-3]
0.363	CC[C@H](C)[C@H](NC(=O)[C@H](CCCNC(=N)N)NC(=O)[C@H](Cc1c[nH]cn1)NC(=O)[C@H](CCCCN)NC(=O)[C@H](CCC(=O)O)NC(=O)[C@H](CCC(N)=O)NC(=O)[C@H](CC(C)C)NC(=O)[C@@H](N)CSCC(=O)Nc1ccc2c(c1)C(=O)OC21c2ccc(O)cc2Oc2cc(O)ccc21)C(=O)N[C@@H](CC(C)C)C(=O)N[C@@H](Cc1c[nH]cn1)C(=O)N[C@@H](CCCCN)C(=O)N[C@@H](CC(C)C)C(=O)N[C@@H](CC(C)C)C(=O)N[C@@H](CCC(N)=O)C(=O)N[C@@H](CC(N)=O)C(=O)NCC(=O)N[C@@H](CC(N)=O)C(=O)N[C@@H](CO)C(=O)N1CCC[C@H]1C(=O)N[C@@H](C)C(=O)O [SRC3-2] (H-C(Fluorescein(5-NHCOCH2))LQEKHRILHKLLQNGNSPA-OH)
1.21	CC(C)C[C@H](NC(=O)[C@H](CCC(N)=O)NC(=O)[C@@H](NC(=O)[C@H](CC(C)C)NC(=O)[C@H](CCCCN)NC(=O)[C@H](Cc1c[nH]cn1)NC(=O)[C@H](CO)NC(=O)[C@@H](NC(=O)[C@H](CCC(N)=O)NC(=O)[C@H](CO)NC(=O)[C@H](Cc1ccc(O)cc1)NC(=O)[C@@H](N)CSCC(=O)Nc1ccc2c(c1)C(=O)OC21c2ccc(O)cc2Oc2cc(O)ccc21)[C@@H](C)O)C(C)C)C(=O)N[C@@H](CC(C)C)C(=O)N[C@H](C(=O)N[C@H](C(=O)N[C@H](C(=O)N[C@@H](C)C(=O)N[C@@H](CCC(=O)O)C(=O)N[C@@H](CCC(N)=O)C(=O)N[C@@H](CCC(N)=O)C(=O)O)[C@@H](C)O)[C@@H](C)O)[C@@H](C)O [SRC1-1] (H-C(Fluorescein(5-NHCOCH2))YSQTSHKLVQLLTTTAEQQ-OH)

Target: T1, hERα-LBD (ligand binding domain of …)
Experiment: fluorescence polarization, labelled peptide 10 nM, hERα-LBD titrated, genistein present
Conditions: not given
Procedure: as §1, §2, §3

Molecule	Kd [µM]
C(5‑iodoacetamidofluorescein)YSQTSHKLVQLLTTTAEQQ [SRC1-1 coregulator peptide]	5
C(5‑iodoacetamidofluorescein)ESKDHQLLRYLLDKDEKDL [SRC1-3 coregulator peptide]	2.55
C(5‑iodoacetamidofluorescein)LTARHKILHRLLQEGSPSD [SRC1-2 coregulator peptide]	0.298

Continued, values first:

Kd [µM]	Molecule
2.6	C(5‑iodoacetamidofluorescein)DSKGQTKLLQLLTTKSDQM [SRC2-1 coregulator peptide]
0.569	CLKEKHKILHRLLQDSSSPV (5-iodoacetamidofluorescein coupled to the amino terminal cysteine, also called SRC2-2 peptide) [SRC2-2 coregulator peptide]
1.03	C(5‑iodoacetamidofluorescein)LQEKHRILHKLLQNGNSPA [SRC3-2 coregulator peptide]

Target: T3, hTRβ-LBD (ligand binding domain of …)
Experiment: fluorescence polarization, hTRβ-LBD titrated, T3 present; Table 3 prints >AL (assay limits) for this pair
Conditions: not given
Procedure: as §1, §2, §3

Molecule	Kd [µM]
C(5‑iodoacetamidofluorescein)YSQTSHKLVQLLTTTAEQQ [SRC1-1 coregulator peptide]	100
C(5‑iodoacetamidofluorescein)ESKDHQLLRYLLDKDEKDL [SRC1-3 coregulator peptide]	100

Next, values leading:

Kd [µM]	Molecule
100	C(5‑iodoacetamidofluorescein)DSKGQTKLLQLLTTKSDQM [SRC2-1 coregulator peptide]
100	C(5‑iodoacetamidofluorescein)LQEKHRILHKLLQNGNSPA [SRC3-2 coregulator peptide]
